Assay results reported in article PMC6908506, “Development of Foot-and-Mouth Disease Virus-Neutralizing Monoclonal Antibodies Derived From Plasmablasts of Infected Cattle and Their Germline Gene Usage” (Frontiers in Immunology, 2019).

Key:
[1] = target: T1, FMDV O/Mya/98 146S antigen (Foot-and-mouth disease virus serotype …, UniProt G8JKC2, strain); assay: ELISA; settings: both partners purified
T1 construct: also called purified virus antigen; copies: + + +

[2] = target: T1, FMDV O/Mya/98 146S antigen; assay: cell-based or functional assay
[3] = target: T1, FMDV O/Mya/98 146S antigen; assay: immunostaining of cells or tissue; settings: one partner purified

Binder	binding result [1]	further results
B81 (antibody, V domains shown, also called HRP-B81) VH: QVQLRESGPSLVKPSQTLSLTCTVSGFSLSNYAIGWVRQAPGKAPEWVVDTDVDGGTAYNPALKSRLSITKDNSKSQVSLSLNGVTPEDTATYYCVKLSRESAWLFFHVDAWGQGLLITISS VL: QAVLTQPSSVSGSLGQSVSITCSGSSGNIGRYGVDWYQQVPGSGLRTIIYASSRRPSGVPDRFSGSKSGNTATLTISSLQAEDEADYFCAGGDENIIVPLFGAGTTLTVL	binds	
60 (antibody, V domains shown) VH: QVQLRESGPSLVKPSQTLSLTCTISGFSLSDATVGWVRQASGKALEWLGAIWPSGSTGYNLGLKSRLTITKDNSKTQVFLSLNSLTPEDTATYHCTGGGIGFIWGQGLLVTVSP VL: QAVLTQPSSVSGSLGQRVSITCSGSPNNVGLGNFVSWFQQIPGSAPRSLIYGATSRVSGVPDRFSGSRSMNTATLTISSLQAEDEADYFCASYERNNTGVFGSGTTLTVL	binds	
B59 (antibody, V domains shown) VH: QVQLRESGPSLVKPSQTLSLTCTVSGFSLSDYAVGWVRQAPGKALEWVGGISSGGTTCSKPALKSRLSITRDSSKSQVSLFVTSMTPEDTATYYCAKYFRHDYDVGCSYIMEAVDAWGQGLLVTVSS VL: QAVLTQPSSVSGSLGQRVSITCSGSSSNVGRGNYVNWFQQIPGSAPRTLIYGATSRASGVPNRFSGSRSGNTATLTISSLQAEDEADYFCAVWDDNIRNAVFGSGTTLILL	binds	
A7 (antibody, V domains shown) VH: QVQLRESGPSLVKPSQTLSLTCTVSGFSLSSYAVNWVRQAPGKALECLGGISSSGSTGYKPALKSRLSITKDNSKSQVSLSVSNVTPEDTATYYCVKSYWDYNDYGCCSGGNGVGFDAWGQGLLVTVSS VL: QAVLTQPSSVSGSLGQRVSITCSGSSNNIGSYAVGWYQQVPGSGLRTIIYSSSSRPSGVPDRFSGSKSGNTATLTISSLQAEDEADYFCATADYSRSTAVFGSGTILTVL	binds	
E10 (antibody, V domains shown) VH: QVQLRESGPSLVKPSQTLSLTCTVSGFSLSSNGVVWVRQAPGKALEWVGCSRGEGSTFYNQALRSRLSITKDNSKSQVSLSVSSVTPEDTATYYCTKVYNGGCGRRGYDAAAYVDAWGQGLLVTVSS VL: QAVLTQPSSVSGSLGQRVSITCSGRSNNIGGNGVGWYQQVPGSGLRTIIYGSSSRPSGVPDRFSGSKSGNTATLTISSLQAEDEADYFCATADYSSGTAVFGSGTTLTVL	binds	
E9 (antibody, V domains shown) VH: QVQLRESGPSLVKPSQTLSLTCTVSGFSLSNYAVSWVRQAPGKALECLGSISSDGNTGYNPALKSRLSITKDNSKSQVSLSVSSATPEDTATYYCTKCHYPGGCCGYWNDDHVDAWGQGLLVTVSS VL: QAVLTQPSSVSGSLGQRVTITCSGSSSNIGMYDVGWYQQVPGSGLRTIIYGSSSRPSGVPDRFSGSKSGNTATLTIMSLQAEDEADYFCTTADYSSSTVVFGSGTTLTVL	binds	
62 (antibody, V domains shown) VH: QVQLRESGPSLVKPSQTLSLTCTVSGFSLSDKDVGWVRQAPGTALEWLAVIYNAGSTSYNPTLESRLSITKDNSKSQVSLSLSSVTTEDTATYYCALGNYWAWGQGLLVTVSS VL: QAALTQPSSVSGSLGQRVSITCSGSSSNIGRGNYVNWFQQIPGSAPRTLIYGATNRASGVPDRFSGSRSGDTATLTISPLQAEDEADYFCAAYDINGNAVFGSGTTLTVL	binds	
B51 (antibody, V domains shown) VH: QVQLRESGPSLVKPSQTLSLTCTVSGFSLSSYGVIWVRQAPGKALECLGQITTGGITGYNPALKSRLSITKDNSEGQVSLSLSSVTTEDTATYYCVKEHDNYGDFSGGCLHAAYVDTWGQGLLVTVSS VL: QAVLTQPSSVSGSLGQRVSITCSGSSSNIGLYAVGWYQQVPGSGLRSIIYSSRSRPSGVPDRFSGSKSGNTATLTISSLQAEDEADYFCVAYDSSSDSAIFGSGTTLTVL	binds	
E32 (antibody, V domains shown) VH: QVQLRESGPSLVKPSQTLSLTCTVSGFSLSNYALNWVRQAPGKALECLGGIGPSGHTDYNPALKSRLIITKDNSKNQVSLSVSSVTPEDTATYICARDSGIYGTSGWGCIGGFDDNYIDAWGHGLLVTVSS VL: QAVLTQPSSVSGSLGQRVSITCSGSSNNIGAHGVGWYQQIPGSGLRTIIYNNSKRPSGVPDRFSGSKSGNTATLTISSLQAGDEADYFCATSDYSTRSSAFGSGTTLTVL	binds	
F136 (antibody, V domains shown) VH: QVQLRESGPSLVKPSQTLSLTCTVSGFSLSSKGVHWIRQAPGKALEWLGSTWSFGSAFNPALKSRLSITKDNSKSQVALSLSTVTPEDTATYYCARELYNGGSTWDAINGYNEERYYFDAWGQGLLVTVSS VL: QAVLTQPSSVSGSLGQSVSITCSGSSSNVGYGNYVSWFQQIPGSAPRMLIYGATSRASGVPYRFSGSRSGNTATLTINSLQAEDEADYFCASPDSSSSGYFAVFGSGTTLTVL		virus neutralizing test on BHK-21 cells, IC50 [2]: 1.67 µg/mL
E40 (antibody) VH: QVQLRESGPSLVKPSQTLSLTCTASGFSLSDKAVGWVRQAPGKALEWLGGIDTGGNKDYNPGLKSRLSITKDNSKSQMSLSMSSVTTEDSATYYCTTVHQKTNTAKTCRDGHVDVSSCYGSSGCPRSGCCACRRWGGTACSICSSRIVTYTYEFHVDVWGQGLLVTVSS VL: QAVLTQPSSVSGSLGQRVSITCSGSSSNVGNGYVSWYQLIPGSAPRTLIYGDTSRASGVPDRFSGSRSGNTATLTISSLQAEDEADYFCASPEDSSTNALFGSGTTLTVL		binding result [3]: binds
B64 (antibody, V domains shown) VH: QVQLRESGPSLVKPSQTLSLTCTVSGFSLSNYDVAWVRQPPGKALECLGGVSISGRTDYNPALKSRLSITKDNSKNQVSLSLSSVTTEDTATYYCAKFFGDYGYDYYGCGYGAGDHYVDAWGQGLLVAVSS VL: QAVLTQPSSVSGSLGQRVSITCSGSSSNVGNGYVSWYQLIPGSAPRTLIYGDTSRASGVPDRFSGSRSGNTATLTISSLQAEDEADYFCASAEGSSSNAGFGSGTTLIVL	binds	
F4 (antibody, V domains shown) VH: QVQLRESGPSLVKPSQTLSLTCTVSGFSLSSSGVVWVRQAPGKALEWVGSLSSGGLTSRNPALKSRISITKDNSKSQVSLSMSSVTPEDTATYYCAKCGGFYGSTCNGYGSSYDFWGRGLLVTVSS VL: QAVLTQPSSVSGSLGQRVSITCSGSSSNVGNGYVSWYQLIPGSAPRTLIYGDTSRASGVPDRFSGSRSGNTATLTISSLQAEDEADYFCASAEDSSSNAVFGSGTTLTVL		binding result [3]: binds
E16 (antibody) VH: QVQLRESGPSLVKPSQTLSLTCTVSGFSLSDKAVGWVRQAPGKALEWLGSIDGGEKTTYNPGLKSRLSITKDNSKNQVSLSVSSVSTEDSATYYCSIVYQKRERKCPDGYRPGTFCGSGINARDCRYDGCYASEHWQCCDTYTPGTSAYNFHIDAWGQGLLVTVSS VL: QAVLTQPSSVSGSLGQRVSITCSGSSSNVGKGYVSWYQRIPGSAPRTLIYDDTSRASGVPDRFSGSRSGNTATLTISSLQVEDEADYFCASAEGSSSNAVFGSGTTLTVL	binds	
E43 (antibody) VH: QVQLRESGPSLVKPSQTLSLTCTASGFSLRDKAVGWVRHTPGKALEWIGSIDSSGNTGYNPGLKSRLSITKDNSKSQVSLSVSAVLSEDSATYYCTVVHQETRQEEGCPDGYLYDSRCGPGGGCSGRLCTRTPSARANDFCCTGRRIRTSTYQHHIDAWGQGLLVTVSS VL: QAVLTQPSSVSGSLGQRVSITCSGSSSNVGNGYVSWYQLTPGSAPRTLIYGDTTRASGVPDRVSGSRFGNTATLTISSLQAEDEADYFCASAEDGNSNAVFGSGTTLTVL		binding result [3]: binds
E11 (antibody, V domains shown) VH: QVQLRESGPSLVKPSQTLSLTCTVSGFSLNSYAVTWVRQAPGKALECLGSIGSRGGTGYNQALKSRLSITKNNSKSQVSLSVRSVTPEDTATYYCVKESGSGYWDDACWGFGVGDDYVDTWGHGLLVTVST VL: QAVLTQPSSVSGSLGQRVSITCSGSSSNVGRGNYVSWFQQLPGAAPRTLIYAATSRASGVPDRFSGSRSGNTATLTISSLQAEEEAYYFCAVYDTSSKAAVFGSGTTLTVL	binds	
E53 (antibody, V domains shown) VH: QVQLRESGPSLVKPSQTLSLTCTVSGFSLSSYAVDWVRQAPGKALECLGGISRDGDISYNPALKSRLSITKDDSKSQVSLSLSSVTSEDTATYYCAKATDGGYFRSTYGCQGFTVNTYVDIWGQGFLVTVSS VL: QAVLTQPSSLSGSLGQRVSITCSGSSGNIGTRDVSWYQQIPGSGLRTIIYGNSSRPSGVPDRFSGSRSGNTATLRIRSLQPEDEADYFCGSADYSSEIAVFGSGTTLTVL	binds	
E28 (antibody, V domains shown) VH: QVQLRESGPSLVKPSQTLSLTCTISGFSLSDYAVAWVRQAPGKAPEWVGGISTGGRTNYNPTLESRLSITKDNAKSQISLTVSSVTPEDTATYLCLRLACYDHEGYRCFGYDLNWGVDAWGQGLLVSVSS VL: QAVLTQPSSVSGSLGQRVSITCSGSSTNIGTYYVGWYQQVPGSGLRTIIYGTTNRPSGVPDRFSGSKSSGNTATLTISSLQAEDEADYFCVTYDSTITPSAVFGSGTTLTVL	binds	
B54 (antibody, V domains shown) VH: QVQLRESGPSLVKPSQTLSLTCTVSGFSLSSNAVVRVRQAPGKTLEWLGGICSGGATSFNPALKSRLSITKDNSKSQVSLSVSSVTPEDTATYYCMRVGSCFGCGDRCGYGYPYTYVDVWGQGLLVTVSP VL: QAVLTQPSSVSGSLGQRVSITCSGSSSNVGTGNYVSWFQQIPGSAPRTLIYGATSRASGVPDRFSGSRSGNTATLTISSLQAEDEADYFCASYQIGNTAVFGSGTTLTVL	binds	
E12 (antibody, V domains shown) VH: QVQLRESGPSLVKPSQTLPLTCTVSGFSLSDYGVGWVRQAPGKALEWLGVIYYAGRTVYNPALKSRLSITKDNSKSQISLSLSSVITEDTATYYCTRCYEDYYYDCIDWGHRYDLWGQGLLVTVSS VL: QAVLTQPSSVSGSLGQRVSITCSGSSSNVGTGNYVTWFQQIPGSAPRILIYGASSRVSGVPDRFSGSRSGNTATLTISSLQAEDEADYFCTSYESDYTAVFGSGTTLTVL	binds	
